Source: the RNAGym collection of RNA variant scans (doi:10.1073/pnas.2313332121)

B1: TPR t1 (parent)
chain: GACCAAUCUGCCCUCAGAGCUCGAGAACAUCUUCGGAUGCAGAGGAGGCAGGCUUCGGUGGCGCGAUAGCGCCAACGUCCUCAACCUCCAAUGCAUCCCACCACAUGAUGAUGCCUGAAGAGCCUUGGUUUUUUG

Variants of: B1
Experiment: polymerase ribozyme fitness, log enrichment relative to wild type (log ratio); higher = more active; in vitro selection for triplet polymerase activity
Outline: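 Fitness measures genotype enrichment against wild-type enrichment on a logarithmic scale, with inverse-variance-weighted averaging of replicates. The logarithm is base 2, and genotypes were kept only with ≥10 input reads and ≥1 read per output in Illumina sequencing. The sequenced libraries came from one triplicate in vitro selection round, including frozen incubation at −7 °C, of PCR-built, transcribed mutant libraries of each subunit of a heterodimeric triplet polymerase ribozyme.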

Row | Variant | polymerase ribozyme fitness (log ratio)
1 | C34A C73U C82U C99A | -4.69
2 | C31U G47U C73A U112C G120C | -5.43
3 | C31U C53U C72U A103U | -6.73
4 | U33G A84C | -6.66
5 | U32A C56G G60C C62A A121C | -6.89
6 | U32C U116A | -3.4
7 | U32C G69A C76G G77C | -4.8
8 | U32G G35A C98A C99U U109A | -6.04
9 | C31U A37G | -3.78
10 | U33C G63U | -3.43
11 | C34A A37C C72U A118G | -2.87
12 | U33A G52U G61C C115A | -4.91
13 | U33G G36C | -7.66
14 | U32G G57A C123U | -7.55
15 | U33G C34G G52U | -6.73
16 | C31G G48U C72U C86G A100C G120C | -7.02
17 | U33A G44A C72A U112G | -6.21
18 | C31G G71U C94G A121G U132C | -7.12
19 | C31U G44U | -5.33
20 | U32A | -3.82
21 | U32C | 0.135
22 | U32G | -6.71
23 | C31U C49U C76G U81G U96A C104U A108U C124G U130C | -5.23
24 | C34A C88U | -2.2

Row | Variant | polymerase ribozyme fitness (log ratio)
25 | C31G C70A | -7.42
26 | U32A G61A C123G | -1.69
27 | C34A G117C | -4.31
28 | C34A G117A | -3.53
29 | C34A C70G C72G C82G | -6.51
30 | U32C C72G | -0.273
31 | U32C C72A | 0.0616
32 | U32C U92A U96C U132A | -2.97
33 | U32C C82G U87A | -2.42
34 | U33G G63C U112G U129A | -7.08
35 | C34A G71C | -4.06
36 | C34A G71A | -3.26
37 | C31U C85A U106A | -2.67
38 | U33C C124U | -3.97
39 | U32C G93U | -0.79
40 | C34A A37U C82G | -4.35
41 | U32C C40G G45A G47A U54A G61U C88G G110C A111G G117A U125A | -7.2
42 | C31U G61A C123G | -3.22
43 | U32C U109G | -4.99
44 | C34A A50U G71C C123G | -4.86
45 | U32A C101U | -4.58
46 | U33C U38G | -4.8
47 | U33C C72U | -3.04
48 | C34A C56A U78C C104U | -2.07

Row | Variant | polymerase ribozyme fitness (log ratio)
49 | U32A G45A A75U C88U U96C | -5.82
50 | U32G C70A G117A | -5.24
51 | C31U A37G G69U | -3.72
52 | U32C U78A A84G G122A | -2
53 | U33C U38A C49G A103C G113U G117A | -6.59
54 | U32G C49A G117A | -7.02
55 | U33G G63C | -5.3
56 | C31U C53G | -3.58
57 | U32A G47C C53G C86A | -6.08
58 | U33G | -5.67
59 | U33A | -4.27
60 | U33C | -3.31
61 | C34A A50U G61U | -3.7
62 | U32C G48A G52U C114A | -4.17
63 | C34A C49G C62G A121G | -5.41
64 | U32A C34A C64U C86G C114A U133C | -5.96
65 | U32A U112A | -2.37
66 | U32C C53U C56A A118U | 0.16
67 | C31G G122A | -5.66
68 | U33G G63U A90U A111G G120C | -6.96
69 | U32C A75G C124A | 1.81
70 | U32G A50G G69U C88G A121C | -3.17
71 | C34A G77C U78C | -2.16
72 | U32C C124G G135U | 0.917

Row | Variant | polymerase ribozyme fitness (log ratio)
73 | C34A G45C C53A G60U C124A | -1.69
74 | C34A G48U G93C | -4.96
75 | C31G G52U G77A G117U | -6.19
76 | U32C C86U C101U C114A | -4.6
77 | U32C C73U A118G | -0.657
78 | C31G C114A | -6.73
79 | U32C G42A C56U C115U | -1.93
80 | U33A U112C G122C | -2.34
81 | U33G G69A | -7.83
82 | C34A A119G | -2.03
83 | U33A C86G C114U | -4.98
84 | U33G G39U A50U A84U A91C C114A | -5.3
85 | C31U G36U G61U C82A A111U | -5.16
86 | C34A A41G C88U C101U | -3.38
87 | U32G G35U C40U C86U A121U | -5.02
88 | U32C G57U | -0.164
89 | C31U U78A A90G | -3.97
90 | U33A U116C | -6.14
91 | U33C C79U | -4.51
92 | U32A G45C U54A G61U | -3.78
93 | U32C A41U C89G G93U | -4.07
94 | C34A G61C | -4.99
95 | C34A G61U | -3.25
96 | U32C C62A | -1.92

Row | Variant | polymerase ribozyme fitness (log ratio)
97 | C31U U87C U96A G120U | -5.92
98 | C34A G63A | -4.65
99 | U33A A90C | -6.85
100 | C34A A41G A74U C88U C101U | -4.89
101 | U32G A68U C70U C80A C101U A111U U126G | -8.12
102 | C34A A66U C101U | -5.31
103 | U32C G42U A43U U87C C94A C101U C102U | -5.8
104 | U33G C104A A121C G135A | -5.07
105 | C34A C64U C94U | -3.02
106 | C31U C72G G120C | -5.23
107 | C34A G47U G61A C86U | -4.04
108 | C34A C70U G120C | -4.45
109 | U32G U59C U112A G122U | -6.09
110 | U32C A37U U38A G48U U96G | -1.88
111 | U32C G63A U78G C98U G117U | -6.07
112 | C34A G45C C53A G60U | -1.66
113 | C31U G63C | -5.08
114 | C31U G63U | -3.29
115 | U33G C34A G48U G117C | -7.42
116 | U32G G48U C72G C102U G120C | -7.94
117 | U33A G42A G52U G61A A121U | -5.46
118 | U32C C98A U106A | -6.32
119 | U33C G69A A83C U96C A119U C124A G127U | -5.27
120 | U33G C97A | -5.28

Row | Variant | polymerase ribozyme fitness (log ratio)
121 | C34A A37G | -2.73
122 | C34A C73U A74U | -3.25
123 | C34A G45C U59A C98G | -3.73
124 | C34A C76U G120C | -3.22
125 | U33G A118G | -5.59
126 | U33A A37U U55C G63U A100C | -7.2
127 | U32A C40U C101A C124A | -3.05
128 | C31G C53A G107C | -1.38
129 | C31U C89G | -5.1
130 | C31U C89U | -5.93
131 | U32C C49G G52C U96C | -1.52
132 | U33A A37U U55C A100C | -6.04
133 | U32A C114G | -4.17
134 | C31G C80G A100U C101G A103U G120C | -7.23
135 | U33G U87G | -5.18
136 | C34A C124G U130G | -0.7
137 | U32G A43C C73U C97G G117A | -6.86
138 | C34A G47C C82U A91G G120U | -7.66
139 | C31U G61U | -4.59
140 | C31U G61A | -3.81
141 | U33G C72G C86A A91C | -7.55
142 | U33G G61U | -4.97
143 | U32C G36A A83C | -3.09
144 | U33G C64A G71U U112A | -7.32

Row | Variant | polymerase ribozyme fitness (log ratio)
145 | U33A C114U | -4.64
146 | C34A A50U G61A G71C C123G | -6.98
147 | C34A G61A C94A | -3.89
148 | C34A C56U | -2.12
149 | C34A C56A | -3.11
150 | U32C G47U G48U G113C | -3.38
151 | U32G A43U G69U A100C U109C G117U U130A | -7.2
152 | U33C G42C C99G A105G G113C U116A C123G C124A U132C | -7.71
153 | U32A G58C C94U | -3.96
154 | U33G G120U | -5.27
155 | U32C G47U G48U C104G G117U G127C | -6.32
156 | U33A C89G A103U U112A G113U | -5.8
157 | C34A G48A | -3.24
158 | U32C C102G G113A | -7.53
159 | U32C G48U C56A G71U | -3.98
160 | U32C A50G A118U U131G | -1.27
161 | U33G G71A G117U | -8.01
162 | U32G G57C C76U C82G C85U C114G | -7.16
163 | U33A C89A G117U | -5.96
164 | U32C G48U | -1.13
165 | C34A C86A | -3.67
166 | U32C C104U | 0.382
167 | U32A G117A | -5.64
